In patent publication US10765761B2, “Nucleic acid condensing peptide, nucleic acid condensing peptide set, nucleic acid delivery carrier, nucleic acid delivery method, cell production method, cell detection method and kit” (KABUSHIKI KAISHA TOSHIBA, priority 2016, dated 2020):

What was measured:
plasmid vector (pDNA) [1] = test: Gel retardation assay: condensability and dissociation with M9, Example 11; format: binding
Description: Each of the peptides was dissolved in 10 mM-HEPES (pH: 5.4) and several peptide solutions having different peptide concentrations were prepared.
For M9, one peptide solution was prepared to have a peptide concentration of: (1) 0.24 mg/ml. For mHP-1 and mHP-2, peptide solutions were prepared to have a peptide concentration of 0.24 mg/ml and a mixture ratio between mHP-1 and mHP-2 of 1:3, and 1 μL of M9 was added to one to prepare a peptide solution (2), and M9 was not added to one to prepare a peptide solution (3). Moreover, the plasmid vector (pDNA) was diluted with purified water to prepare a nucleic acid solution having a pDNA concentration of 0.15 mg/ml. […]
As samples for the condensability evaluation, five sets of 5.5 μL of 10 mM-HEPES (pH: 5.4) were prepared, and 4.5 μL of the respective peptide-nucleic-acid solutions described above were added to prepare mixtures. […] After the electrophoresis, the nucleic acid dyed with ethidium bromide was visualized by UV irradiation, and the nucleic acids condensed by the peptide and the nucleic acid dissociating with the peptide and moving into the gel were detected.
FIG. 15 is a photograph showing the agarose gel subjected to UV irradiation. […] When an integrated band with a large molecular weight, which strongly shines is observed in the left lane, it was evaluated as a high condensability.

plasmid vector (pDNA) [2] = test: Average particle diameter and Zeta potential of peptide-nucleic-acid complexes (zetasizer), Example 1; format: physicochemical
Description: The condensability of the nucleic acid by the peptide of the embodiment and the potential of the peptide-nucleic-acid complex were evaluated.
The peptides were each dissolved in 10 mM of HEPES (pH: 5.3) to prepare several peptide solutions having different peptide concentrations.
For the protamine, three peptide solutions were prepared to have peptide concentrations of: (1) 2.1 mg/ml, (2) 2.4 mg/ml and (3) 2.7 mg/ml. For the mHP-4, four peptide solutions were prepared to have peptide concentrations of: (4) 1.8 mg/ml, (5) 2.1 mg/ml, (6) 2.4 mg/ml and (7) 2.7 mg/ml. For the mHP-1, three peptide solutions were prepared to have peptide concentrations of: (8) 2.1 mg/ml, (9) 2.4 mg/ml and (10) 2.7 mg/ml. For the mHP-2, five peptide solutions were prepared to have peptide concentrations of: (11) 1.2 mg/ml, (12) 1.5 mg/ml, (13) 2.1 mg/ml, (14) 2.4 mg/ml and (15) 2.7 mg/ml. For the mHP-3, three peptide solutions were prepared to have peptide concentrations of: (16) 2.1 mg/ml, (17) 2.4 mg/ml and (18) 2.7 mg/ml. Further, plasmid vector (pDNA) was diluted with purified water to prepare a nucleic acid solution having a pDNA concentration of 3.0 mg/ml.
18 sets of nucleic acid solutions (90 μL) put in tubes were prepared and the peptide solutions (1) to (18) (90 μL) described above were dropped respectively therein and mixed while stirring each, to condense the nucleic acids. Thus, the peptide-nucleic-acid complexes were obtained. Then, the mixtures were each diluted with purified water to 25-fold to produce peptide-nucleic-acid solutions. Further, as references, samples containing only each respective peptide were also prepared without adding the nucleic acid solutions thereto.
The average particle diameter and Zeta potential of each of the peptide-nucleic-acid complexes were investigated using the peptide-nucleic-acid solutions. The average particle diameter and Zeta potential were measured using a zetasizer.

[3] = Average particle diameter and Zeta potential of liposome (zetasizer), Example 3; format: physicochemical
Description: (§1) COATSOME/SS-20 (Nippon Oil & Fats), DOPE, cholesterol and DMG-PEG were dissolved into ethanol at a molar ratio of 5:3:1:0.3, to obtain a lipid solution. Two sets of lipid solutions (0.5 ml) put into tubes were prepared, and 0.5 ml of peptide-nucleic-acid solutions (8) (mHP-1) and (16) (mHP-3) of Example 1 were dropped thereto while stirring each lipid solution, thereby forming liposomes. 9 ml of 10 mM-HEPES (pH: 5.3) was added to each of the liposome solutions to make a total amount of 10 ml (each liposome solution will be referred to as “Complex” hereinafter). Further, on an assumption that the liposome is taken into an organism, and liposome solutions (which will be referred to as “HEPES replacement”) in which ethanol, which is the solvent of Complex is substituted by HEPES were produced. The HEPES replacements were produced by condensing each solution of Complex to 1.5 ml with an ultrafiltration film for 300 kDa, adding 8.5 ml of 100 mM-HEPES (pH: 7.4) to each, performing ultrafiltration, thereafter substituting the solvent with 10 mM-HEPES (pH: 7.4), and finally condensing to 0.5 ml. Further, the HEPES replacements were filtered for sterilization with a filter with a pore diameter of 0.45 μm to prepare solutions (which will be referred to as “0.45 μm” hereinafter).
(§2) The “peptide-nucleic-acid solution”, “HEPES substituent” and “0.45 micrometer”, each of which contain the protamine, mHP-1 or mHP-3 prepared as above were examined in terms of average particle diameter of liposome, Zeta potential and amount of encapsulation of plasmid. The average particle diameter and Zeta potential were measured using a zetasizer. The amount of encapsulation of plasmid was measured using a Quant-iT PicoGreen (registered trademark) dsDNA assay kit.

plasmid = test: Amount of encapsulation of plasmid in liposome (Quant-iT PicoGreen dsDNA assay kit), Example 3; format: physicochemical
Description: as §1, §2

plasmid vector (pDNA) [4] = test: Average particle diameter, polydispersity index and Zeta potential of peptide-nucleic-acid complexes, Example 6; format: physicochemical; conditions: peptide-nucleic-acid complex, total peptide 0.24 mg/ml, pDNA 0.15 mg/ml
Description: Each of the peptides was dissolved into 10 mM-HEPES (pH: 5.4) to prepare several peptide solutions having different peptide concentrations.
For the mHP-1, one peptide solution was prepared to have a peptide concentration of (1) 0.24 mg/ml. For the mHP-2, one peptide solution was prepared to have a peptide concentration of (2) 0.24 mg/ml. For the mHP-1 and mHP-2, five peptide solutions were prepared to have a total peptide concentration of 0.24 mg/ml and mixture ratios between mHP-1 and mHP-2 of: (3) 1:1, (4) 1:3, (5) 1:5, (6) 1:7 and (7) 1:9. Meanwhile, plasmid vector (pDNA) was diluted with purified water to prepare a nucleic acid solution having a pDNA concentration of 0.15 mg/ml.
The peptide solutions (1) to (7) (100 μL) were prepared in tubes and the nucleic acid solution (200 μL) was dropped and mixed thereto while stirring each solution to condense the nucleic acids, and thus peptide-nucleic-acid complexes were obtained.
The peptide-nucleic-acid complexes were investigated in terms of average particle diameter, polydispersity index and Zeta potential using the respective peptide-nucleic-acid solutions. The average particle diameter, polydispersity index and Zeta potential were measured using a zetasizer.

[5] = Average particle diameter, polydispersity index and Zeta potential of liposome (Complex), Example 8; format: physicochemical
Description: COATSOME/SS-20 (Nippon Oil & Fats), DOPE, cholesterol and DMG-PEG were dissolved into ethanol at a molar ratio of 5:3:1:0.3, to obtain a lipid solution. Five sets of 50 μL of lipid solutions put into tubes were prepared, and 50 μL of peptide-nucleic-acid solutions (1) to (4) and (7) of Example 6 were dropped thereto while stirring each lipid solution, thereby forming liposomes. 400 μL of 10 mM-HEPES (pH: 5.4) was added to each of the liposome solutions to make a total amount of 500 μL (this liposome solution will be referred to as “Complex” hereinafter).
The average particle diameter, polydispersity index and Zeta potential of liposome were investigated using the Complex. The average particle diameter, polydispersity index and Zeta potential were measured using a zetasizer.

[6] = pDNA/peptide 1/0.7 (peptide conc. 2.1 mg/mL)
[7] = pDNA/peptide 1/0.8 (peptide conc. 2.4 mg/mL)
[8] = pDNA/peptide 1/0.9 (peptide conc. 2.7 mg/mL)
[9] = peptide solely, no nucleic acid (Reference)
[10] = pDNA/peptide 1/0.6 (peptide conc. 1.8 mg/mL)
[11] = pDNA/peptide 1/0.4 (peptide conc. 1.2 mg/mL)
[12] = pDNA/peptide 1/0.5 (peptide conc. 1.5 mg/mL)

| Sequence | Average particle diameter (zAve) (plasmid vector (pDNA) [2]; [6]) | Zeta potential (plasmid vector (pDNA) [2]; [6]) | Average particle diameter (zAve) (plasmid vector (pDNA) [2]; [7]) | Zeta potential (plasmid vector (pDNA) [2]; [7]) | Average particle diameter (zAve) (plasmid vector (pDNA) [2]; [8]) | Zeta potential (plasmid vector (pDNA) [2]; [8]) | Average particle diameter (zAve) (plasmid vector (pDNA) [2]; [9]) | Zeta potential (plasmid vector (pDNA) [2]; [9]) | also measured |
| --- | --- | --- | --- | --- | --- | --- | --- | --- | --- |
| GNQSSNFGPMKGGNFGGRSSGPYGGGGQYFAKPRNQGGYGGGKCRGKVPGKYGKG [M9, third nucleic acid condensing peptide comprising M9 domain of hnRNP A1] | – | – | – | – | – | – | – | – | influence on condensability or dissociation of nucleic acid by mixed mHP-1 and mHP-2 peptide solution (plasmid vector (pDNA) [1]; M9 added to mHP-1:mHP-2 1:3 peptide solution (FIG. 15)): does not influence the condensability or dissociation; nucleic acid condensability (plasmid vector (pDNA) [1]; M9 used solely, 0.24 mg/ml, 0.8% agarose gel (FIG. 15)): does not exhibit nucleic acid condensability |
| PRRRRSSSRPIRRRRPRRASRRRRRRGGRRRR (salmon) [Protamine sequence, reference compound] | 136.5 nm | −27.8 mV | 135.9 nm | −24.9 mV | 139.6 nm | −29.5 mV | 711.3 nm | 28.1 mV | Average particle diameter (zAve) ([3]; Peptide-nucleic acid solution): 167.8 nm; Zeta potential ([3]; Peptide-nucleic acid solution): −41.30 mV; Average particle diameter (zAve) ([3]; liposome, 0.45 μm filtered): 235.5 nm; Zeta potential ([3]; liposome, 0.45 μm filtered): −0.72 mV; Average particle diameter (zAve) ([3]; liposome, HEPES substitution): 392.2 nm; Zeta potential ([3]; liposome, HEPES substitution): −0.47 mV; Plasmid inclusion amount (plasmid; 0.45 μm filtered): 7.97 µg/mL; Plasmid inclusion amount (plasmid; HEPES substitution): 12.68 µg/mL |
| RRRRRRGGRRRRRR (Comperative example of nucleic acid condensing peptide) [mHP-4] | 141.2 nm | −30.7 mV | 323.4 nm | 28.6 mV | 212.2 nm | 33.0 mV | 1083.0 nm | 39.7 mV | Average particle diameter (zAve) (plasmid vector (pDNA) [2]; [10]): 130.9 nm; Zeta potential (plasmid vector (pDNA) [2]; [10]): −23.8 mV |
| RRRRRRYYRQRQRGGRRRRRR (Comperative example of nucleic acid condensing peptide) [mHP-2] | 184.0 nm | 27.3 mV | 159.0 nm | 21.6 mV | 158.6 nm | 34.2 mV | 321.0 nm | 50.5 mV | Average particle diameter (zAve) (plasmid vector (pDNA) [2]; [11]): 141.8 nm; Zeta potential (plasmid vector (pDNA) [2]; [11]): −27.7 mV; Average particle diameter (zAve) (plasmid vector (pDNA) [2]; [12]): 139.8 nm; Zeta potential (plasmid vector (pDNA) [2]; [12]): −17.7 mV; Average particle diameter (zAve) (plasmid vector (pDNA) [4]): 169.1 nm; Polydispersity index (PDI) (plasmid vector (pDNA) [4]): 0.285; Zeta potential (plasmid vector (pDNA) [4]): −34.1 mV; Average particle diameter (zAve) [5]: 250.0 nm; Polydispersity index (PDI) [5]: 0.092; Zeta potential [5]: 36.2 mV |
